Experimental data published in PMC9901739.

Target: acetylesterase LgEstI from Lactococcus garvieae (Lactococcus garvieae)
Test: SEC; Superdex 200 10/300 GL; 20 mM Tris-HCl pH 8.0, 200 mM NaCl, 1 mM TCEP, 5% glycerol; standard curve from a protein standard mix of 15-600 kDa

Substance: acetylesterase LgEstI from Lactococcus garvieae (enzyme)
- stoichiometry N: 2
